Measured values as given in the RNAGym collection of RNA variant scans (doi:10.1073/pnas.2313332121).

B1: TPR t1 (parent)
chain: GACCAAUCUGCCCUCAGAGCUCGAGAACAUCUUCGGAUGCAGAGGAGGCAGGCUUCGGUGGCGCGAUAGCGCCAACGUCCUCAACCUCCAAUGCAUCCCACCACAUGAUGAUGCCUGAAGAGCCUUGGUUUUUUG

Variants of: B1
Assay: polymerase ribozyme fitness, log enrichment relative to wild type (log ratio); higher = more active; in vitro selection for triplet polymerase activity
Outline: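 After PCR construction and transcription, each subunit's mutant library from a heterodimeric triplet polymerase ribozyme was annealed with a biotinylated primer, the partner subunit and triplets. Incubation was frozen, at −7 °C, and extended constructs were gel-excised, bound to streptavidin beads and amplified by RT-PCR, in one selection round done in triplicate. Fitness is the logarithm of a genotype's enrichment divided by that of the wild type, from inverse-variance-weighted replicate averages of Illumina-sequenced inputs and outputs. The base of the logarithm is 2, and genotypes needed ≥10 input reads and ≥1 read per output.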

Row | Variant | polymerase ribozyme fitness (log ratio)
1 | GACCAAUCUGUCCUCAGAGCUCGAGAACAUCUUCGGAUGCAGAGGAGGCAGGCUUCGGUGGCGCGAUAGCGCCAACGUCCUCAGCCUCUAAUUCAUCCCACCACAUGAUGAUGCCUGAAGAGCCUUGGUUUUUUG [C11U A84G C89U G93U] | -2.61
2 | GACCAAUCUGUCCUCAGAGCUCGAGAACAUCUUCGGAUGCAGAGGAGGCAGGCUUCGGUGGCGCGAUAGCGCCUACGUCCUCAACCUCCAAUGCAUCCCACCACAUGAGGAUGCCAGAAGAGCCUUGGUUUUUUG [C11U A74U U109G U116A] | -6.7
3 | GACCAAUCUGUCCUCAGAGCUCGAGAAGAUCUUCGGGUGCAGAGGAGGCAGGCUUCGGUGGCGCGAUAGCGCCAACGUCCUCAACCUCCAAUGCAUCCCACCACAUGAUGAUGCCUGAAUAGCCUUGGUAUUUUG [C11U C28G A37G G120U U130A] | -2.33
4 | GACCAAUCUGUCCUCAGAGCUCGAGAACAUCUUCGGAUGGAGAGGAGGCAGGCUUCGGUGCCGCGAUAGCGCCAACGUCCUCAACCUCCAAUGCAUCCCACCACAUGAUGAUGCCUGAUGAGCCUUGGUUUUUUG [C11U C40G G61C A119U] | -2.64
5 | GACCAAUCUGUCCUUCGAGCUCGAGAACAUCUUCGGAUGCAAAGGAGGCAGGCUUCGGUGGCGCGAUAGCGCCAACGUCCUCAACCUCCAAUGCAUCCCACCACAUGAUGAUGCCUGAAGAGCCUUGGUUUUUUG [C11U C15U A16C G42A] | -2.92
6 | GACCAAUCUGUCCUAAGAGCUCGAGAACAUCUUCGGAUGCAGAGGAGGCAGGCUUUGGUGGCGCGAUAGCGCCAACGUCCUCAACCUCCAAUGCAUCCCACCACAUGAUGAUGCCUGAAGAGCCUUGGUUUUUUG [C11U C15A C56U] | -1.47
7 | GACCAAUCUGUCCUCAGAGCUCGAGAACAUCUUCGGAUGCAGAGGAGGAAGGCUUCGGUGGCGCGAUAGCGCCAACGUCCUCAACCUCCAAUGCAUCCCACCACAUUAUGAUGCCUGAAAAGCCUUGGUUUUUUG [C11U C49A G107U G120A] | -4.45
8 | GACCAAUCUGUGCUUAGAGCUCGAGAAGAUCUUCGGAAGCAGAGGAGGCAGGCUUUGGUGGCGCGAUACCGCCAACGUCCUCAACCUCCAAUGCAUCCCACCACAUGAUGAUGCCUGAAAAGCCUUGGUUUUUUG [C11U C12G C15U C28G U38A C56U G69C G120A] | -7.02
9 | GACCAAUCUGUUCUUAGAGCUCGAGAACAUCUUCGGAUGCAGAGGAGGCAGGAUUCGGUGGCGCGAUAGCGCCAACGUCUUCAACCUUCAAUGCAUCCCACCAUAUGAUGUUGCCUGGAGAGCCUUGGUUUUUUG [C11U C12U C15U C53A C80U C88U C104U A111U A118G] | -6.72
10 | GACCAAUCUGUCUUCAGAGCUCGAGAACAUCUUCGGAUGCAGAGGAGGCAGGUUUCGGUGGCUCGAUAGCGCCAACGUCCUCAACCUCCAAGGCAUCCCACCAUAUGAUGAAGCCUGAAGAGCCUUGGUUUUUUG [C11U C13U C53U G63U U92G C104U U112A] | -4.22
11 | GACCAAUCUGUCCUCAGAGCUCGAGAACAUCUUCGGAUGCAGAGGAGGAAGGCUUCGGUGGCGCGAUAGCGCCAACGUCCUCAACCUCCAAUGCAUCCCACCACAUGAUGAUGCCUGAAGAGCCUUGGUUUUUUG [C11U C49A] | -1.28
12 | GACCAAUCUGUCUUCAGAGCUCGAGAACAUCUUCGGAUGCAGAGGAGGCCGGCUUCGGUGGCGCGAUAGCGCCAACGUCCUCAACCUCCAAUGCAUCCCACCCCAUGAUGAUGCCUGAAGAGCCAUGGUUUUUUG [C11U C13U A50C A103C U125A] | -5.37
13 | GACCAAUCUGUCCUGAGAGCUCGAGAACAUCUUCGGAUGCAGAGGAGGCAUGCUUCGGUGGCGCGAUAGCGCCAACGUCCUCAACCUCCAAUGCAUCCCACCACAUGAUGAUGCCUGAGGAGCCUUGGUUUUAUG [C11U C15G G51U A119G U133A] | -2.44
14 | GACCAAUCUGUCCUCAGAGCUCGAGAACAUCUUCGGAUGCAGAGGAGGCAGGCUUCGGUGGCGCGAUAGCGCCAACGUCCUCAACCUCCAAUGCAUCCCACCACAUGAUGAUGCCUGUAGAGCCUUGGUUUUUUG [C11U A118U] | -0.464
15 | GACCAAUCUGUCCUGAGAGCUCGAGAGCAUCUUCGGAUGCAGAGGAGGCAGGCUUCGGUGGCGCGAUAGCGCCAACGUCCUCAACCUCCAAUGGAUCCCACCACAUGACAAUGCCUGAUAAGCCUUGGUUUUUUG [C11U C15G A27G C94G U109C G110A A119U G120A] | -7.62
16 | GACCAAUCUGUCCUCAGAGCUCGAGAACAUCUUCGGAUGCAGAGGAGGAAGGCUCCGGUAGCGCGAUAGCGCCAACGUCCUCAACCAGCAAUGCCUCCCACCACAUGAUGAUGCCUGAAGUGCCUUGGUUUUUUG [C11U C49A U55C G60A U87A C88G A95C A121U] | -2.74
17 | GACCAAUCUGUCCUCAGAGCUCGAGAACAUCUUGGGAUGCAGAGGAGGCAGGAUUCGGUGGCGCGAUAGCACCAACGUCCUCAACCUCCAAUGCAUCCCACCACAUGAUGAUGCCUGAAGAGCCUUGGUUUUUUG [C11U C34G C53A G71A] | -6.35
18 | GACCAAUCUGUCCUCAGAGCUCGAGAACAUCUUCGGAUGCAGAGGAGGCAGGCUUCGGUGGCGCGAUAGCGCCAACGUCCUCAGCCUCAAAUGCAUCCCACCACAUGAUGAUGCCUGAAGAGCCUUGGUUUUUUG [C11U A84G C89A] | -4
19 | GACCAAUCUGUCCUCAGAGCUCGAGAACAUCUUCGGAUGCAGAGGAGGCAGGCUUCGGUGGCGCGAUAGCGCCAACGUCCUCAACCUCCAAUGCAUCCCACCACCUGAUGAUGCCUGGAGAGCCUUGGUUUUUUG [C11U A105C A118G] | -2.52
20 | GACCAAUCUGUCUUCAGAGCUGGAGAACAUCUUCGGAUGCAGAGGAGGCAGGCUUCGGUGGCGCGAUAGCGCCAACGUCCUAAACCUCCAAUGCAUCCCACCACAUGAUGAUGCCUGAAGAGCCUUGGUUUUUUG [C11U C13U C22G C82A] | -4.12
21 | GACCAAUCUGUCAUCAGAGCUCGAGAACAUCUUCGGAUGCAGAGGAGGCAGGCUUCGGUGGCGCGAUAGCGCCAACGUCCUCAACCUUCAAUGCAUCCCACCACAUGAUGAUGCCUGAAGAGCCUUGGUUUUUUG [C11U C13A C88U] | -2.38
